Reference: patent US20230272109A1

Molecular target: Claudin 18.2 (UniProt P56856)
Assay: flow cytometry (FACS), cells not given

- EC50: 0.166 µg/mL
B1: RGCLN18.2 antibody (antibody, human IgG1, kappa, V domains shown)
VH: QVQLVQSGAEVKKPGASVKVSCKASGYAFTNYLIEWVRQAPGQGLEWMGLINPGSGGTNYNEKFKGRVTMTRDTSTSTVYMELSSLRSEDTAVYYCARGGYYGNSFAYWGQGTLVTVSS
VL: DIVMTQSPLSLPVTPGEPASISCKSSQSLLNSGNQKNYLTWYLQKPGQSPQLLIYWASTRESGVPDRFSGSGSGTDFTLKISRVEAEDVGVYYCQNAYYYPYTFGGGTKVEIKR
